Test results from patent US20100041074A1 (published 2010).
Values joined by “and” are separate entries in the source; they are usually repeats but may differ in a detail not shown here. Equal values may be shown once.

Biological target: GST fused GRP78 protein (GST-GRP78) purified from E. coli (UniProt P11021 19-654)
Test: ELISA

B1: toxin-labeled GD17 single-chain antibody (GD17scFv-PE40) (scFv)
scFv: MDHHHHHHHHHHKLQVQLQQSGAELARPGASVKLSCKASGYTFTSYWMHWVKQRPGQGLEWIGAIYPGDGDTRYTQKFKGKATLTADKSSSTAYMQLSSLASEDSAVYYCASGITAVADYWGQGTTLTVSSGGGGSGGGGSGGGGSDVVMTQTPLSLPVSLGDQASISCRSSQSLVHSNGNTYLHWYLQKPGQSPKLLIYKVSNRFSGVPDRFSGSGSGTDFTLKISRVEAEDLGVYFCSQSTHVPLTFGAGTKLELKEFGGAPEFPKPSTPPGSSGLEGGSLAALTAHQACHLPLETFTRHRQPRGWEQLEQCGYPVQRLVALYLAARLSWNQVDQVIRNALASPGSGGDLGEAIREQPEQARLALTLAAAESERFVRQGTGNDEAGAANADVVSLTCPVAAGECAGPADSGDALLERNYPTGAEFLGDGGDVSFSTRGTQNWTVERLLQAHRQLEERGYVFVGYHGTFLEAAQSIVFGGVRARSQDLDAIWRGFYIAGDPALAYGYAQDQEPDARGRIRNGALLRVYVPRSSLPGFYRTSLTLAAPEAAGEVERLIGHPLPLRLDAITGPEEEGGRLETILGWPLAERTVVIPSAIPTDPRNVGGDLDPSSIPDKEQAISALPDYASQPGKPPDYKDDDDKKDEL
Question: With B1 as the binder, how does the EC50 read?
Answer: 1.41 nM and 1.25 nM
